The labels stand for the following.
B1: CPEB3 Ribozyme (parent)
chain: GGGGGCCACAGCAGAAGCGUUCACGUCGCGGCCCCUGUCAGAUUCUGGUGAAUCUGCGAAUUCUGCUGU

In the data set the parent is B1. Nature of the data set: self-cleavage, relative activity (ratio to wild type); higher = more cleavage; co-transcriptional.
On to U38G A60G, for which the self-cleavage is 0.249.

Take U38G A60U: the self-cleavage was determined as 0.331.

Consider G37U A52U, for which the self-cleavage came out at 0.317.

Take G37U A52G: the self-cleavage turned out to be 0.282.

On to U38A G65C, for which the self-cleavage was 0.578.

As for U38A G65U, the self-cleavage is 0.633.

Consider U38C U67C, for which the self-cleavage was 0.949.

On to U38C U67A, for which the self-cleavage was determined as 0.931.

Consider G37U U38G, for which the self-cleavage came out at 0.254.

Regarding G37U U38A, the self-cleavage was determined as 0.321.

Regarding G37U U38C, the self-cleavage came out at 0.239.

In the case of U38A U49C, the self-cleavage was found to be 0.899.

Turning to U38A U49A, the self-cleavage came out at 0.846.

In the case of U38A U49G, the self-cleavage turned out to be 0.962.

As to G37C U67C, the self-cleavage came to 0.282.

As for U38C U62G, the self-cleavage is 0.717.

In the case of U38C U62C, the self-cleavage was 0.633.

For U38G G56U, the self-cleavage came to 0.672.

As to U38G G56C, the self-cleavage amounted to 0.237.

Regarding U38G G56A, the self-cleavage worked out at 0.722.

Turning to U38C U46C, the self-cleavage was determined as 0.966.

Regarding U38C U46A, the self-cleavage was 0.943.

As to C39A U64C, the self-cleavage was determined as 0.544.

Take U38C C39A: the self-cleavage was found to be 0.299.

Regarding U38C C39G, the self-cleavage worked out at 0.448.

U38C C39U: the self-cleavage was found to be 0.702.

As for U38G U49G, the self-cleavage was found to be 0.264.

Consider U38G U49C, for which the self-cleavage is 0.231.

Regarding U38G U49A, the self-cleavage turned out to be 0.178.

U38A C45G: the self-cleavage was 0.902.

Turning to U38A U62A, the self-cleavage stood at 0.648.

As to U38A U62C, the self-cleavage was 0.594.

In the case of G37U G68A, the self-cleavage stood at 0.438.

On to G37U G68C, for which the self-cleavage was found to be 0.42.

For the variant G37U U53G, the self-cleavage turned out to be 0.206.

On to G37U U53C, for which the self-cleavage came out at 0.252.

In the case of U38A C39U, the self-cleavage amounted to 0.888.

Consider G37U C57U, for which the self-cleavage is 0.264.

G37U C57A: the self-cleavage came out at 0.174.

As for U38G A52C, the self-cleavage worked out at 0.275.

Regarding U38G A52G, the self-cleavage came to 0.327.

Turning to U38C U43A, the self-cleavage was 0.8.

Take U38C U43C: the self-cleavage came out at 0.858.

On to G37C G58U, for which the self-cleavage amounted to 0.353.

As for G37C G58C, the self-cleavage was 0.277.

Turning to G37C G58A, the self-cleavage stood at 0.242.

For U38A A60G, the self-cleavage amounted to 0.563.

Regarding U38A A60C, the self-cleavage was 0.418.

For the variant U38A C63G, the self-cleavage was 0.67.

As for U38A C63A, the self-cleavage came out at 0.663.

U38A C63U: the self-cleavage came out at 0.877.

Turning to U38A G50U, the self-cleavage was 0.894.

For U38A G50C, the self-cleavage was 0.911.

For the variant U38A U64C, the self-cleavage worked out at 0.776.

Consider G37U U64A, for which the self-cleavage amounted to 0.269.

G37U U64C: the self-cleavage was 0.283.

U38C G47U: the self-cleavage worked out at 0.925.

As for U38C G47A, the self-cleavage was 0.933.

Take G37U U67A: the self-cleavage came to 0.293.

Regarding G37U U67C, the self-cleavage is 0.317.

Regarding G37U U67G, the self-cleavage turned out to be 0.304.

As for U38G G47U, the self-cleavage amounted to 0.219.

For U38G G47A, the self-cleavage turned out to be 0.272.

Take G37C U61G: the self-cleavage is 0.282.

As to G37C U61A, the self-cleavage was 0.201.

Consider G37C U61C, for which the self-cleavage was 0.223.

Consider C39A C66A, for which the self-cleavage amounted to 0.435.

With C39A C66U, the self-cleavage came to 0.828.

Regarding C39A, the self-cleavage was found to be 0.903.

With G37C U44C, the self-cleavage turned out to be 0.187.

As for C39A U46G, the self-cleavage was found to be 0.957.

Turning to C39A U46C, the self-cleavage turned out to be 0.808.

On to G37U U55G, for which the self-cleavage was 0.173.

For the variant G37U U55C, the self-cleavage worked out at 0.214.

Take G37C G50U: the self-cleavage amounted to 0.188.

Consider C39A U49A, for which the self-cleavage amounted to 0.902.

U38A C57A: the self-cleavage stood at 0.368.

With U38A C57U, the self-cleavage stood at 0.35.

U38G U69C: the self-cleavage was 0.412.

As to U38G U69G, the self-cleavage worked out at 0.42.

For the variant U38G U69A, the self-cleavage came out at 0.352.

U38C C54U: the self-cleavage came out at 0.948.

In the case of U38C C54G, the self-cleavage was found to be 0.643.

For G37U U69C, the self-cleavage was 0.533.

In the case of U38G G41C, the self-cleavage is 0.226.

Consider C39A A40U, for which the self-cleavage stood at 0.475.

In the case of C39A A40G, the self-cleavage came out at 0.841.

As for C39A A40C, the self-cleavage stood at 0.835.

Turning to U38A A52G, the self-cleavage amounted to 0.89.

Consider U38A A52U, for which the self-cleavage came to 0.856.

Turning to C39A U62A, the self-cleavage was determined as 0.549.

For the variant G37C U69G, the self-cleavage was found to be 0.375.

With U38G U62C, the self-cleavage was 0.261.

As to U38G U46C, the self-cleavage turned out to be 0.294.

Consider U38G U46A, for which the self-cleavage came out at 0.233.

Take U38C C45A: the self-cleavage was 0.885.

In the case of U38C C45U, the self-cleavage worked out at 0.922.

In the case of U38A U69A, the self-cleavage was 0.98.

U38C G65A: the self-cleavage was 0.746.

As for U38C G65C, the self-cleavage is 0.519.

With U38C G65U, the self-cleavage is 0.495.

Regarding C39A U67C, the self-cleavage is 0.918.

For C39A U67A, the self-cleavage is 0.846.

C39A A52U: the self-cleavage came to 0.673.

Regarding C39A A52C, the self-cleavage turned out to be 0.67.

In the case of C39A A52G, the self-cleavage was found to be 0.833.

Take G37C G56U: the self-cleavage amounted to 0.237.

With G37C G56A, the self-cleavage turned out to be 0.205.

G37C G68U: the self-cleavage is 0.245.

For G37C G68A, the self-cleavage stood at 0.304.

Regarding G37C G68C, the self-cleavage is 0.245.

As to G37U A42G, the self-cleavage is 0.234.

As for G37U A42U, the self-cleavage was 0.246.

Consider G37U A42C, for which the self-cleavage was 0.256.

As to G37U U43C, the self-cleavage came to 0.236.

With G37U U43A, the self-cleavage turned out to be 0.209.

As for U38C A51C, the self-cleavage amounted to 0.87.

Consider U38C A51G, for which the self-cleavage worked out at 0.88.

In the case of U38C C57G, the self-cleavage amounted to 0.369.

For U38G A42U, the self-cleavage is 0.178.

Take U38G A42C: the self-cleavage stood at 0.264.

Turning to U38G A42G, the self-cleavage was 0.189.

Turning to G37C U46C, the self-cleavage was found to be 0.174.

For G37U G65A, the self-cleavage was found to be 0.234.

Turning to G37U G65U, the self-cleavage is 0.265.

U38C G48A: the self-cleavage was determined as 0.963.

As for G37C U62G, the self-cleavage was 0.157.

Regarding G37C U62A, the self-cleavage amounted to 0.212.

Take U38A C66U: the self-cleavage turned out to be 0.917.

In the case of U38A C66A, the self-cleavage worked out at 0.721.

For U38A C66G, the self-cleavage was found to be 0.764.

U38A U61C: the self-cleavage was found to be 0.507.

For U38A U61G, the self-cleavage came to 0.637.

On to U38A U61A, for which the self-cleavage was determined as 0.782.

For the variant U38C A52C, the self-cleavage worked out at 0.921.

In the case of U38A C54U, the self-cleavage was 0.911.

U38C A60G: the self-cleavage came to 0.78.

Turning to U38C A60C, the self-cleavage worked out at 0.293.

For G37U U62A, the self-cleavage amounted to 0.227.

Regarding G37U U62G, the self-cleavage is 0.332.

As to U38G G65U, the self-cleavage was 0.28.

Turning to U38G G65A, the self-cleavage is 0.257.

For the variant U38C U64C, the self-cleavage turned out to be 0.662.

Turning to U38C U64G, the self-cleavage was 0.785.

Turning to G37C U53A, the self-cleavage was 0.256.

In the case of G37U C39U, the self-cleavage was 0.186.

Take G37U U61G: the self-cleavage came to 0.152.

Consider G37U U61C, for which the self-cleavage was determined as 0.21.

Regarding C39A U53A, the self-cleavage was found to be 0.447.

Consider C39A U53C, for which the self-cleavage is 0.37.

In the case of C39A U53G, the self-cleavage was 0.351.

Take C39A G41U: the self-cleavage worked out at 0.277.

Consider U38A A42U, for which the self-cleavage was 0.817.

Take U38C G56C: the self-cleavage worked out at 0.401.

U38C G56A: the self-cleavage worked out at 0.879.

For the variant U38C G56U, the self-cleavage came to 0.658.

For G37U, the self-cleavage worked out at 0.319.

With U38C G58A, the self-cleavage turned out to be 0.895.

As to U38C G58C, the self-cleavage is 0.929.

For the variant U38C G58U, the self-cleavage stood at 1.01.

For the variant U38A U44G, the self-cleavage was determined as 0.875.

Consider U38A U44A, for which the self-cleavage is 0.854.

As for U38G A51C, the self-cleavage was determined as 0.293.

As to G37C G65U, the self-cleavage worked out at 0.237.

For G37C G65A, the self-cleavage was determined as 0.246.

As for U38G U44C, the self-cleavage stood at 0.273.

For U38G U44G, the self-cleavage was 0.346.

The record behind these values is the RNAGym collection of RNA variant scans (doi:10.7554/elife.80360).
